Test results from doi:10.1101/2024.02.02.578563.

Assays:
Experiment in all cases: EMSA
rGST hnRNPA2B1 = rGST hnRNPA2B1 (UniProt P22626 1-353)
rGST APE1 WT = rGST APE1 WT (human, UniProt P27695 1-318)
[1] = biological target: rGST APE1 NdeltaN33 (APE1NΔ33) (human, UniProt P27695 34-318, del1-33)
rGST APE1 NdeltaN33 (APE1NΔ33), sequence (P27695 34-318, stated change not applied): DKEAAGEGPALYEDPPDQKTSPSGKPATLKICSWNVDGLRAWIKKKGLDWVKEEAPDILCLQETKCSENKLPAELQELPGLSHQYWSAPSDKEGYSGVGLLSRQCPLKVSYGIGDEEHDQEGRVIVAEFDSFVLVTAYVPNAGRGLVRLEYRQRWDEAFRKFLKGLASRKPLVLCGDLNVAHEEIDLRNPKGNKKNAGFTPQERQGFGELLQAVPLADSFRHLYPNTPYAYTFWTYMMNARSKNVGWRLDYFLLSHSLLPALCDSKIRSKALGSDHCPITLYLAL

rGST APE1 WT, sequence (P27695 whole entry): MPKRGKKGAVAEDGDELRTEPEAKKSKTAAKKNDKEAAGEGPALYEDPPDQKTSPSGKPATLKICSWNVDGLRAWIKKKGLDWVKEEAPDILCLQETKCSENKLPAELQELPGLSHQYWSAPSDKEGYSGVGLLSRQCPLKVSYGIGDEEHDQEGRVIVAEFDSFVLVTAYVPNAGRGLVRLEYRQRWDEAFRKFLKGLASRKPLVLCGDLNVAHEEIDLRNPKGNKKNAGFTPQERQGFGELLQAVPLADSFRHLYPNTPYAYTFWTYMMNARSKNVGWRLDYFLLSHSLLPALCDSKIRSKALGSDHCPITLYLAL
rGST hnRNPA2B1, sequence (P22626 whole entry): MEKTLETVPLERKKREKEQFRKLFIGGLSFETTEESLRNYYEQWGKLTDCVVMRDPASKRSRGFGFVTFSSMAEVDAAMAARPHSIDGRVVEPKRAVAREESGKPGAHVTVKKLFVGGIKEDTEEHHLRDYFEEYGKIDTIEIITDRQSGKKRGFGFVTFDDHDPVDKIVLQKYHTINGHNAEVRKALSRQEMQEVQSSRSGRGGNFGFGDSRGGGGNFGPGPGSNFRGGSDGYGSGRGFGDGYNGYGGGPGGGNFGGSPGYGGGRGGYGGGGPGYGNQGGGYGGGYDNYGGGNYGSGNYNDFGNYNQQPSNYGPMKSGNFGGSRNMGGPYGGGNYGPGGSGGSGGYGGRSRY

Binder	binding result (rGST hnRNPA2B1)	binding result (rGST APE1 WT)	binding result [1]
GGGGAGGUUAGGGAGGAGGGGGGUAGGCGCC (ssRNA) [EXO-miR]	binds	binds	
AAUGGAUUUUUGGAGCAGG (ssRNA) [hsa-miR-1246]	binds	binds	no binding
GUGUGUACGGAUUGUAGAA (ssRNA) [scrEXO-miR-1246]		no binding	
